Reference: publication PMC9352680, “A comprehensive thermodynamic model for RNA binding by the Saccharomyces cerevisiae Pumilio protein PUF4”

T1: PUF4 RNA-binding domain (Saccharomyces cerevisiae, UniProt P25339 537-888)
T1 sequence: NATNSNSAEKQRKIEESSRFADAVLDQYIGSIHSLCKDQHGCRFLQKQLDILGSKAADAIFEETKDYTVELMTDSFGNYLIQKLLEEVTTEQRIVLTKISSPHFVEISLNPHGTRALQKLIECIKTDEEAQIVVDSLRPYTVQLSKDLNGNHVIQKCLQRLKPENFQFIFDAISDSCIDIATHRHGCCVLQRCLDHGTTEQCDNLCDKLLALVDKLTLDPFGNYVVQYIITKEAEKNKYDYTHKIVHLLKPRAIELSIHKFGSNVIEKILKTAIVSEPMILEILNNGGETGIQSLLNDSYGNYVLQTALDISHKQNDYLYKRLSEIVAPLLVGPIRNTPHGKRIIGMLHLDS


Biological target: T1, PUF4 RNA-binding domain
Assay: Mg; RNA-MaP; 20 mM Na-HEPES pH 7.4, 30 mM KOAc, 0.75 mM MgCl2, 0.1% Tween-20, 5% glycerol, 0.1 mg/mL BSA, 2 mM DTT; 25 C; 0.0125-409.6 nM protein
Conditions: tags: N-His6-TEV cleaved; C-SNAP kept, Cy3B-labelled; label: tethered on chip by stalled RNA polymerase

Binder | Kd [nM]
UCUCUUUGUAUAGCAUCUCUU (ssRNA) [Ib_S1_P4E.1_K4.1_C4.1_H4.1_A4.1_[T7G]_F4.1_[T8C]_T4.1] | 26.2
Ic_S4_P4E.1_K4.1_C4.1_H4.1_A4.1_[T5A]_[T7C]_F4.1_[A9T]_T4.1 (ssRNA) RNA: UUUGACAACUGAUCGUUCUUUCUUGUAAACUUUUCUUUCUCGAUCAGUUGUCUUU | 51.4
Ic_S4_P4E.1_K4.1_C4.1_H4.1_A4.1_[A6G]_[T7G]_F4.1_[A9T]_T4.1 (ssRNA) RNA: UUUGACAACUGAUCGUUCUUUCUUGUAUGGUUUUCUUUCUCGAUCAGUUGUCUUU | 292
Ic_S4_P4E.1_K4.1_C4.1_H4.1_A4.1_[A6C]_[T7G]_F4.1_[T8G]_[A9C]_T4.1 (ssRNA) RNA: UUUGACAACUGAUCGUUCUUUCUUGUAUCGGCUUCUUUCUCGAUCAGUUGUCUUU | > 2300
Ic_S4_P4E.1_K4.1_C4.1_H4.1_A4.1_[A6C]_F4.1_[T8A]_[A9C]_T4.1 (ssRNA) RNA: UUUGACAACUGAUCGUUCUUUCUUGUAUCUACUUCUUUCUCGAUCAGUUGUCUUU | 34.1
Ic_S4_P4E.1_K4.1_C4.1_H4.1_A4.1_[A6G]_F4.1_[T8A]_[A9C]_T4.1 (ssRNA) RNA: UUUGACAACUGAUCGUUCUUUCUUGUAUGUACUUCUUUCUCGAUCAGUUGUCUUU | 85
Ic_S4_P4E.1_K4.1_C4.1_H4.1_A4.1_[A6C]_[T7G]_F4.1_[T8A]_[A9C]_T4.1 (ssRNA) RNA: UUUGACAACUGAUCGUUCUUUCUUGUAUCGACUUCUUUCUCGAUCAGUUGUCUUU | > 2300
Ic_S4_P4E.1_K4.1_C4.1_H4.1_A4.1_[A6G]_[T7C]_F4.1_[T8C]_T4.1 (ssRNA) RNA: UUUGACAACUGAUCGUUCUUUCUUGUAUGCCAUUCUUUCUCGAUCAGUUGUCUUU | 28.5
Ic_S4_P4E.1_K4.1_C4.1_H4.1_A4.1_[A6C]_F4.1_[T8G]_[A9C]_T4.1 (ssRNA) RNA: UUUGACAACUGAUCGUUCUUUCUUGUAUCUGCUUCUUUCUCGAUCAGUUGUCUUU | 52
Ic_S4_P4E.1_K4.1_C4.1_H4.1_A4.1_[A6G]_[T7G]_F4.1_[T8C]_[A9T]_T4.1 (ssRNA) RNA: UUUGACAACUGAUCGUUCUUUCUUGUAUGGCUUUCUUUCUCGAUCAGUUGUCUUU | 624
Ic_S4_P4E.1_K4.1_C4.1_H4.1_A4.1_[A6G]_F4.1_[T8A]_T4.1 (ssRNA) RNA: UUUGACAACUGAUCGUUCUUUCUUGUAUGUAAUUCUUUCUCGAUCAGUUGUCUUU | 70.5
Ic_S4_P4E.1_K4.1_C4.1_H4.1_A4.1_[A6T]_[T7G]_F4.1_[T8G]_[A9T]_T4.1 (ssRNA) RNA: UUUGACAACUGAUCGUUCUUUCUUGUAUUGGUUUCUUUCUCGAUCAGUUGUCUUU | 1310
Ic_S4_P4E.1_K4.1_C4.1_H4.1_A4.1_[A6C]_[T7A]_F4.1_[A9G]_T4.1 (ssRNA) RNA: UUUGACAACUGAUCGUUCUUUCUUGUAUCAUGUUCUUUCUCGAUCAGUUGUCUUU | 10.1
Ic_S4_P4E.1_K4.1_C4.1_H4.1_A4.1_[A6G]_[T7C]_F4.1_[T8A]_[A9T]_T4.1 (ssRNA) RNA: UUUGACAACUGAUCGUUCUUUCUUGUAUGCAUUUCUUUCUCGAUCAGUUGUCUUU | 108
Ic_S4_P4E.1_K4.1_C4.1_H4.1_A4.1_[T5A]_[T7A]_F4.1_T4.1 (ssRNA) RNA: UUUGACAACUGAUCGUUCUUUCUUGUAAAAUAUUCUUUCUCGAUCAGUUGUCUUU | 3.34
Ic_S4_P4E.1_K4.1_C4.1_H4.1_A4.1_[T5A]_F4.1_[T8A]_[A9G]_T4.1 (ssRNA) RNA: UUUGACAACUGAUCGUUCUUUCUUGUAAAUAGUUCUUUCUCGAUCAGUUGUCUUU | 78.7
Ic_S4_P4E.1_K4.1_C4.1_H4.1_A4.1_[A6C]_[T7C]_F4.1_[T8A]_T4.1 (ssRNA) RNA: UUUGACAACUGAUCGUUCUUUCUUGUAUCCAAUUCUUUCUCGAUCAGUUGUCUUU | 577
Ic_S4_P4E.1_K4.1_C4.1_H4.1_A4.1_[A6G]_F4.1_[T8C]_[A9T]_T4.1 (ssRNA) RNA: UUUGACAACUGAUCGUUCUUUCUUGUAUGUCUUUCUUUCUCGAUCAGUUGUCUUU | 74.2
Ic_S4_P4E.1_K4.1_C4.1_H4.1_A4.1_[A6C]_[T7C]_F4.1_[A9G]_T4.1 (ssRNA) RNA: UUUGACAACUGAUCGUUCUUUCUUGUAUCCUGUUCUUUCUCGAUCAGUUGUCUUU | 29.9
Ic_S4_P4E.1_K4.1_C4.1_H4.1_A4.1_[A6G]_F4.1_[T8G]_[A9G]_T4.1 (ssRNA) RNA: UUUGACAACUGAUCGUUCUUUCUUGUAUGUGGUUCUUUCUCGAUCAGUUGUCUUU | 180
Ic_S4_P4E.1_K4.1_C4.1_H4.1_A4.1_[T5A]_[T7A]_F4.1_[A9T]_T4.1 (ssRNA) RNA: UUUGACAACUGAUCGUUCUUUCUUGUAAAAUUUUCUUUCUCGAUCAGUUGUCUUU | 65
Ic_S4_P4E.1_K4.1_C4.1_H4.1_A4.1_[T5A]_[T7A]_F4.1_[T8C]_[A9T]_T4.1 (ssRNA) RNA: UUUGACAACUGAUCGUUCUUUCUUGUAAAACUUUCUUUCUCGAUCAGUUGUCUUU | 258
Ic_S4_P4E.1_K4.1_C4.1_H4.1_A4.1_[A6C]_[T7A]_F4.1_[T8A]_[A9T]_T4.1 (ssRNA) RNA: UUUGACAACUGAUCGUUCUUUCUUGUAUCAAUUUCUUUCUCGAUCAGUUGUCUUU | 50.5

Binder | Kd [nM]
Ic_S4_P4E.1_K4.1_C4.1_H4.1_A4.1_[A6G]_[T7G]_F4.1_[T8C]_[A9G]_T4.1 (ssRNA) RNA: UUUGACAACUGAUCGUUCUUUCUUGUAUGGCGUUCUUUCUCGAUCAGUUGUCUUU | > 2300
Ic_S4_P4E.1_K4.1_C4.1_H4.1_A4.1_[A6G]_[T7C]_F4.1_[T8A]_T4.1 (ssRNA) RNA: UUUGACAACUGAUCGUUCUUUCUUGUAUGCAAUUCUUUCUCGAUCAGUUGUCUUU | 243
Ic_S4_P4E.1_K4.1_C4.1_H4.1_A4.1_[A6C]_[T7C]_F4.1_[T8G]_[A9T]_T4.1 (ssRNA) RNA: UUUGACAACUGAUCGUUCUUUCUUGUAUCCGUUUCUUUCUCGAUCAGUUGUCUUU | 172
Ic_S4_P4E.1_K4.1_C4.1_H4.1_A4.1_[T5A]_[T7A]_F4.1_[A9G]_T4.1 (ssRNA) RNA: UUUGACAACUGAUCGUUCUUUCUUGUAAAAUGUUCUUUCUCGAUCAGUUGUCUUU | 44.5
Ic_S4_P4E.1_K4.1_C4.1_H4.1_A4.1_[A6C]_[T7C]_F4.1_[T8C]_[A9G]_T4.1 (ssRNA) RNA: UUUGACAACUGAUCGUUCUUUCUUGUAUCCCGUUCUUUCUCGAUCAGUUGUCUUU | 449
Ic_S4_P4E.1_K4.1_C4.1_H4.1_A4.1_[T5A]_[T7A]_F4.1_[T8A]_T4.1 (ssRNA) RNA: UUUGACAACUGAUCGUUCUUUCUUGUAAAAAAUUCUUUCUCGAUCAGUUGUCUUU | 202
Ic_S4_P4E.1_K4.1_C4.1_H4.1_A4.1_[A6G]_[T7C]_F4.1_[T8G]_[A9T]_T4.1 (ssRNA) RNA: UUUGACAACUGAUCGUUCUUUCUUGUAUGCGUUUCUUUCUCGAUCAGUUGUCUUU | 261
Ic_S4_P4E.1_K4.1_C4.1_H4.1_A4.1_[A6C]_F4.1_[T8G]_[A9G]_T4.1 (ssRNA) RNA: UUUGACAACUGAUCGUUCUUUCUUGUAUCUGGUUCUUUCUCGAUCAGUUGUCUUU | 89.5
Ic_S4_P4E.1_K4.1_C4.1_H4.1_A4.1_[A6G]_F4.1_[T8C]_[A9C]_T4.1 (ssRNA) RNA: UUUGACAACUGAUCGUUCUUUCUUGUAUGUCCUUCUUUCUCGAUCAGUUGUCUUU | 36.4
Ic_S4_P4E.1_K4.1_C4.1_H4.1_A4.1_[A6C]_F4.1_[T8C]_[A9G]_T4.1 (ssRNA) RNA: UUUGACAACUGAUCGUUCUUUCUUGUAUCUCGUUCUUUCUCGAUCAGUUGUCUUU | 31.1
Ic_S4_P4E.1_K4.1_C4.1_H4.1_A4.1_[A6C]_F4.1_[T8A]_[A9G]_T4.1 (ssRNA) RNA: UUUGACAACUGAUCGUUCUUUCUUGUAUCUAGUUCUUUCUCGAUCAGUUGUCUUU | 40.4
Ic_S4_P4E.1_K4.1_C4.1_H4.1_A4.1_[A6C]_[T7G]_F4.1_[T8C]_[A9C]_T4.1 (ssRNA) RNA: UUUGACAACUGAUCGUUCUUUCUUGUAUCGCCUUCUUUCUCGAUCAGUUGUCUUU | 994
Ic_S4_P4E.1_K4.1_C4.1_H4.1_A4.1_[A6C]_[T7C]_F4.1_[T8C]_[A9C]_T4.1 (ssRNA) RNA: UUUGACAACUGAUCGUUCUUUCUUGUAUCCCCUUCUUUCUCGAUCAGUUGUCUUU | 403
Ic_S4_P4E.1_K4.1_C4.1_H4.1_A4.1_[A6G]_[T7C]_F4.1_[T8C]_[A9C]_T4.1 (ssRNA) RNA: UUUGACAACUGAUCGUUCUUUCUUGUAUGCCCUUCUUUCUCGAUCAGUUGUCUUU | 558
Ic_S4_P4E.1_K4.1_C4.1_H4.1_A4.1_[A6G]_F4.1_[T8A]_[A9G]_T4.1 (ssRNA) RNA: UUUGACAACUGAUCGUUCUUUCUUGUAUGUAGUUCUUUCUCGAUCAGUUGUCUUU | 186
Ic_S4_P4E.1_K4.1_C4.1_H4.1_A4.1_[A6C]_[T7A]_F4.1_[T8A]_[A9C]_T4.1 (ssRNA) RNA: UUUGACAACUGAUCGUUCUUUCUUGUAUCAACUUCUUUCUCGAUCAGUUGUCUUU | 477
Ic_S4_P4E.1_K4.1_C4.1_H4.1_A4.1_[A6C]_F4.1_[T8C]_[A9C]_T4.1 (ssRNA) RNA: UUUGACAACUGAUCGUUCUUUCUUGUAUCUCCUUCUUUCUCGAUCAGUUGUCUUU | 31.5
Ic_S4_P4E.1_K4.1_C4.1_H4.1_A4.1_[A6C]_F4.1_[T8C]_[A9T]_T4.1 (ssRNA) RNA: UUUGACAACUGAUCGUUCUUUCUUGUAUCUCUUUCUUUCUCGAUCAGUUGUCUUU | 16.7
Ic_S4_P4E.1_K4.1_C4.1_H4.1_A4.1_[A6G]_[T7C]_F4.1_[T8G]_[A9C]_T4.1 (ssRNA) RNA: UUUGACAACUGAUCGUUCUUUCUUGUAUGCGCUUCUUUCUCGAUCAGUUGUCUUU | 995
Ic_S4_P4E.1_K4.1_C4.1_H4.1_A4.1_[A6G]_[T7G]_F4.1_[T8C]_[A9C]_T4.1 (ssRNA) RNA: UUUGACAACUGAUCGUUCUUUCUUGUAUGGCCUUCUUUCUCGAUCAGUUGUCUUU | 1940
UCUCUUUGUAUAACAUCUCUU (ssRNA) [Ib_S1_P4E.1_K4.1_C4.1_H4.1_A4.1_[T7A]_F4.1_[T8C]_T4.1] | 11.8
UCUCUUUGUAUACGAUCUCUU (ssRNA) [Ic_S1_P4E.1_K4.1_C4.1_H4.1_A4.1_[T7C]_F4.1_[T8G]_T4.1] | 42.1
UCUCUUUGUAUACCAUCUCUU (ssRNA) [Ib_S1_P4E.1_K4.1_C4.1_H4.1_A4.1_[T7C]_F4.1_[T8C]_T4.1] | 13.1
